3 molecules from publication PMC3597701 (Nucleic Acids Research, 2013) can be followed below.

Sequences and labels used below:
B1: Cdt1 (natural protein)
chain: MSGTANSRRKEVLRVPVIDLNRVSDEEQLLPVVRAILLQHDTFLLKNYANKAVLDALLAGLTTKDLPDTSQGFDANFTGTLPLEDDVWLEQYIFDTDPQLRFDRKCRNESLCSIYSRLFKLGLFFAQLCVKSVVSSAELQDCISTSHYATKLTRYFNDNGSTHDGADAGATVLPTGDDFQYLFERDYVTFLPTGVLTIFPCAKAIRYKPSTMATTDNSWVSIDEPDCLLFHTGTLLARWSQGMHTTSPLQIDPRANIVSLTIWPPLTTPISSKGEGTIANHLLEQQIKAFPKVAQQYYPRELSILRLQDAMKFVKELFTVCETVLSLNALSRSTGVPPELHVLLPQISSMMKRKIVQDDILKLLTIWSDAYVVELNSRGELTMNLPKRDNLTTLTNKSRTLAFVERAESWYQQVIASKDEIMTDVPAFKINKRRSSSNSKTVLSSKVQTKSSNANALNNSRYLANSKENFMYKEKMPDSQANLMDRLRERERRSAALLSQRQKRYQQFLAMKMTQVFDILFSLTRGQPYTETYLSSLIVDSLQDSNNPIGTKEASEILAGLQGILPMDISVHQVDGGLKVYRWNSLDKNRFSKLLQIHKSKQQD
B2: Cdc6 (natural protein)
chain: MSAIPITPTKRIRRNLFDDAPATPPRPLKRKKLQFTDVTPESSPEKLQFGSQSIFLRTKALLQKSSELVNLNSSDGALPARTAEYEQVMNFLAKAISEHRSDSLYITGPPGTGKTAQLDMIIRQKFQSLPLSLSTPRSKDVLRHTNPNLQNLSWFELPDGRLESVAVTSINCISLGEPSSIFQKIFDSFQDLNGPTLQIKNMQHLQKFLEPYHKKTTFVVVLDEMDRLLHANTSETQSVRTILELFLLAKLPTVSFVLIGMANSLDMKDRFLSRLNLDRGLLPQTIVFQPYTAEQMYEIVIQKMSSLPTIIFQPMAIKFAAKKCAGNTGDLRKLFDVLRGSIEIYELEKRFLLSPTRGSLNSAQVPLTPTTSPVKKSYPEPQGKIGLNYIAKVFSKFVNNNSTRTRIAKLNIQQKLILCTIIQSLKLNSDATIDESFDHYIKAITKTDTLAPLQRNEFLEICTILETCGLVSIKKTKCKGKTKRFVDKIDVDLDMREFYDEMTKISILKPFLH
B3: Cdc6 N263A (sensor-1 mutant) (natural protein)
chain: MSAIPITPTKRIRRNLFDDAPATPPRPLKRKKLQFTDVTPESSPEKLQFGSQSIFLRTKALLQKSSELVNLNSSDGALPARTAEYEQVMNFLAKAISEHRSDSLYITGPPGTGKTAQLDMIIRQKFQSLPLSLSTPRSKDVLRHTNPNLQNLSWFELPDGRLESVAVTSINCISLGEPSSIFQKIFDSFQDLNGPTLQIKNMQHLQKFLEPYHKKTTFVVVLDEMDRLLHANTSETQSVRTILELFLLAKLPTVSFVLIGMAASLDMKDRFLSRLNLDRGLLPQTIVFQPYTAEQMYEIVIQKMSSLPTIIFQPMAIKFAAKKCAGNTGDLRKLFDVLRGSIEIYELEKRFLLSPTRGSLNSAQVPLTPTTSPVKKSYPEPQGKIGLNYIAKVFSKFVNNNSTRTRIAKLNIQQKLILCTIIQSLKLNSDATIDESFDHYIKAITKTDTLAPLQRNEFLEICTILETCGLVSIKKTKCKGKTKRFVDKIDVDLDMREFYDEMTKISILKPFLH

The target of this assay is origin recognition complex (ORC) (S. cerevisiae, UniProt P54784;P32833;P54790;P54791;P50874;P38826). In words: in vitro pre-RC assembly assay on origin DNA beads.
For B1, the binding result was “binds”. The result for B2 reads “binds”.

On to B3, for which the binding result is “binds”.
